The results in this text go back to patent US20240360245A1 (Daiichi Sankyo, published 2024).

The target in this test is T1, recombinant human GARP (R&D Systems, catalog number 6055-LR) (human, UniProt Q14392 20-627).
T1 construct: Bought soluble protein; In the phage panning and Fab screening it was in part biotinylated; also called antigen
T1 sequence: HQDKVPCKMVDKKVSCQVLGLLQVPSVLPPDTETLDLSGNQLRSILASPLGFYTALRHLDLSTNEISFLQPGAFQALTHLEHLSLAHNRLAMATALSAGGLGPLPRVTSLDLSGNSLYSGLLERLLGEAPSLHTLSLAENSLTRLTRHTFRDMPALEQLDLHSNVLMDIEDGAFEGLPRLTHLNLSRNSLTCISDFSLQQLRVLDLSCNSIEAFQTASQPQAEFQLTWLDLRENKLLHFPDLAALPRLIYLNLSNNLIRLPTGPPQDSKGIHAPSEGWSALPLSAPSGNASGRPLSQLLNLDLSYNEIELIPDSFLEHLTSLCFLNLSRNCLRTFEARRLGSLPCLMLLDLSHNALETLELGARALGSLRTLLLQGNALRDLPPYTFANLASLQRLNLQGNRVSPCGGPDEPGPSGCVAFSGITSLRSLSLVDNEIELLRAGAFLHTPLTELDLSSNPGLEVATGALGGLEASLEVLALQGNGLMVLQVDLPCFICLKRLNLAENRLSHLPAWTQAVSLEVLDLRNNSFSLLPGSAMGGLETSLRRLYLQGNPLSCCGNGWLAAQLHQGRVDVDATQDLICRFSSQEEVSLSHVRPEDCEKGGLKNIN
As to the kind of experiment: ELISA, Fab in E. coli culture supernatant on coated or NeutrAvidin-captured biotinylated GARP. Here is the method: 50 μL GARP, which had been diluted to 2 μg/mL with PBS (0.01 M phosphate buffered saline (pH 7.4) containing 0.138 M sodium chloride and 0.0027 M potassium chloride; Sigma-Aldrich), was added to each well of a 384-well Maxi-sorp plate (Black, Nunc), and it was then incubated overnight at 4° C. for coating the plate. Alternatively, 50 μL of NeutrAvidin (Life Technologies) which had been diluted to 1 μg/mL with PBS was added to such a 384-well Maxi-sorp plate for coating the plate (by incubating overnight at 4° C.). Thereafter, the plate was washed with an ELISA buffer (PBS (Sigma-Aldrich) supplemented with 0.05% Tween-20 (Bio-RAD)) three times, and biotinylated GARP was then added thereto (1 pmol/50 μL PBS/well), followed by incubation at room temperature for 1 hour with mixing. The plate was washed with ELISA buffer three times, was then blocked with Blocker Casein (Thermo Scientific), and was further washed with the ELISA buffer three times. Thereafter, a culture supernatant containing Fab produced by Escherichia coli was added, and the plate was then incubated at room temperature for 1 hour with mixing. […] Ten minutes later, chemiluminescence was measured using a plate reader (Envision 2104 Multilabel Reader, Perkin Elmer), and GARP-bound Fab was isolated.
For orientation: An ELISA detects its analyte on a solid surface through an enzyme-linked reagent.

B1: 110F Fab (ELISA-positive clone from the n-CoDeR Fab phage library) (Fab, V domains shown)
VH: EVQLLESGGGLVQPGGSLRLSCAASGFTFSSYGMHWVRQAPGKGLEWVAGISWNSAITVYADSVKGRFTISRDNSKNTLYLQMNSLRAEDTAVYYCAKDAGGRYSGSYYFDYWGQGTLVTVSS
VL: QSVLTQPPSASGTPGQRVTISCTGSSSNIGAGYDVHWYQQLPGTAPKLLIYGNSNRPSGVPDRFSGSKSGTSASLAISGLRSEDEADYYCQSYDRSLNWVFGGGTKLTVLG
notes: Fab produced in Escherichia coli and tested as culture supernatant
Regarding B1, the binding result is “binds”.
